Our source for the self-cleavage values is the RNAGym collection of RNA variant scans (doi:10.7554/elife.80360).

The chains are these.
B1: HDV Ribozyme (parent)
chain: GGCCGGCAUGGUCCCAGCCUCCUCGCUGGCGCCGGCUGGGCAACAUUCCGAGGGGACCGUCCCCUCGGUAAUGGCGAAUGGGACCCA

In this data set the parent is B1. Description: self-cleavage, relative activity (ratio to wild type); higher = more cleavage; co-transcriptional.
For the variant C24U G38U, the self-cleavage was 0.115.

Turning to C24U G38C, the self-cleavage is 0.0554.

On to C24U C61U, for which the self-cleavage is 0.718.

In the case of C24U C61A, the self-cleavage was 0.591.

As for G25C C61G, the self-cleavage came out at 0.175.

Take G25C C61U: the self-cleavage was 0.0354.

Turning to G25C C61A, the self-cleavage was found to be 0.201.

G25U G38C: the self-cleavage came out at 0.0554.

For G25A G68U, the self-cleavage is 0.247.

Turning to G25A G68A, the self-cleavage stood at 0.179.

Consider G25A C58U, for which the self-cleavage was found to be 0.248.

With G25C G52C, the self-cleavage worked out at 0.166.

With G25C G52U, the self-cleavage was 0.141.

With G25C A42C, the self-cleavage was found to be 0.128.

Consider G25C A42G, for which the self-cleavage was determined as 0.

Turning to G25C A42U, the self-cleavage came out at 0.

Take G25A G35U: the self-cleavage came to 0.135.

On to G25A G35C, for which the self-cleavage is 0.0627.

For the variant G25C G74A, the self-cleavage worked out at 0.0639.

In the case of G25C G74C, the self-cleavage amounted to 0.

Take G25U C57U: the self-cleavage is 0.227.

Consider G25A U46G, for which the self-cleavage came out at 0.262.

For the variant G25A U46C, the self-cleavage was found to be 0.0831.

Turning to G25A U46A, the self-cleavage came to 0.

As to C24U U72C, the self-cleavage was found to be 0.104.

Turning to C24U U46A, the self-cleavage is 0.53.

In the case of C24U U46C, the self-cleavage turned out to be 0.268.

Take C24U U46G: the self-cleavage came to 0.415.

Take G25C C41A: the self-cleavage was determined as 0.0898.

On to G25C C41U, for which the self-cleavage is 0.0707.

For the variant G25A C48A, the self-cleavage amounted to 0.491.

Consider G25A C48G, for which the self-cleavage was 0.122.

In the case of G25A C84U, the self-cleavage turned out to be 0.173.

As to G25C C32G, the self-cleavage stood at 0.104.

With G25C C32U, the self-cleavage was 0.0755.

As to G25C U37G, the self-cleavage amounted to 0.0519.

On to C24U U65C, for which the self-cleavage amounted to 0.597.

With C24U U65G, the self-cleavage came to 0.435.

As for G25U C41A, the self-cleavage worked out at 0.125.

In the case of G25C U60A, the self-cleavage came out at 0.256.

As for G25C G38A, the self-cleavage is 0.259.

On to G25C C44U, for which the self-cleavage was 0.259.

Turning to G25C C63U, the self-cleavage amounted to 0.0739.

For the variant G25C C63A, the self-cleavage is 0.0755.

Regarding G25U A71U, the self-cleavage was determined as 0.0396.

With G25U A71C, the self-cleavage is 0.213.

G25A C26A: the self-cleavage was 0.0852.

Regarding G25A C26U, the self-cleavage was found to be 0.339.

Take G25A C26G: the self-cleavage worked out at 1.11.

On to C24U C32A, for which the self-cleavage came out at 0.0287.

With C24U C32U, the self-cleavage turned out to be 0.422.

Regarding G25A C62A, the self-cleavage came out at 0.168.

For C24U C66G, the self-cleavage came to 0.796.

Consider C24U C66U, for which the self-cleavage was 0.629.

As to C24U C33U, the self-cleavage came to 0.354.

For the variant C24U A77C, the self-cleavage amounted to 0.119.

Take G25C C49G: the self-cleavage amounted to 0.0594.

Consider G25C C49U, for which the self-cleavage is 0.222.

For C24U U69C, the self-cleavage came out at 0.831.

Turning to C24U U69G, the self-cleavage turned out to be 0.764.

Consider C24U U69A, for which the self-cleavage was 0.617.

Take G25A A51C: the self-cleavage is 0.213.

As for G25A A51U, the self-cleavage was determined as 0.318.

For G25C G40A, the self-cleavage is 0.0386.

On to G25A G55A, for which the self-cleavage turned out to be 0.193.

As for G25A G55U, the self-cleavage is 0.128.

Regarding G25C G31C, the self-cleavage amounted to 0.0978.

Regarding G25A, the self-cleavage was determined as 0.24.

With G25C, the self-cleavage was 0.0909.

On to G25U, for which the self-cleavage stood at 0.177.

On to G25A A45G, for which the self-cleavage was 0.332.

Regarding C24U G81A, the self-cleavage turned out to be 0.185.

For the variant C24U G81C, the self-cleavage turned out to be 0.111.

On to G25C A77U, for which the self-cleavage was found to be 0.

G25C A77C: the self-cleavage was found to be 0.104.

On to G25A C61U, for which the self-cleavage is 0.225.

For G25A C61G, the self-cleavage was determined as 0.185.

With C24U C64A, the self-cleavage amounted to 0.848.

In the case of C24U C64U, the self-cleavage stood at 0.511.

For the variant C24U U37G, the self-cleavage worked out at 0.138.

Take G25A A70G: the self-cleavage stood at 0.0791.

In the case of C24U C86U, the self-cleavage is 0.69.

Turning to C24U C86A, the self-cleavage turned out to be 0.808.

Regarding C24U C86G, the self-cleavage was 0.577.

As for G25U G28U, the self-cleavage is 0.0652.

Regarding G25U G28C, the self-cleavage came out at 0.106.

For G25C G81A, the self-cleavage turned out to be 0.

G25A U72G: the self-cleavage amounted to 0.104.

Turning to G25A U72C, the self-cleavage turned out to be 0.227.

For the variant C24U C26A, the self-cleavage came to 0.955.

On to G25C G39U, for which the self-cleavage was 0.0978.

G25C G39C: the self-cleavage is 0.

Take G25C G39A: the self-cleavage stood at 0.119.

On to G25A A83G, for which the self-cleavage is 0.151.

For G25A A83C, the self-cleavage came out at 0.146.

For G25A C86U, the self-cleavage came to 0.248.

Regarding G25A C57G, the self-cleavage worked out at 0.224.

For the variant G25A C57A, the self-cleavage was determined as 0.194.

Consider G25A C57U, for which the self-cleavage turned out to be 0.232.

As to G25A U69C, the self-cleavage is 0.302.

Take G25U C62G: the self-cleavage was 0.253.

In the case of G25A G54A, the self-cleavage amounted to 0.242.

Regarding G25A G54U, the self-cleavage worked out at 0.202.

C24U A71U: the self-cleavage came to 0.587.

Turning to C24U A71G, the self-cleavage is 0.648.

On to C24U C62G, for which the self-cleavage was found to be 0.341.

As for C24U C62A, the self-cleavage came to 0.471.

Take C24U C62U: the self-cleavage was 0.763.

With G25C G80C, the self-cleavage stood at 0.17.

For the variant G25A G81C, the self-cleavage stood at 0.258.

As for G25A G81U, the self-cleavage was found to be 0.112.

In the case of G25C C84A, the self-cleavage was 0.0489.

In the case of G25A C36U, the self-cleavage stood at 0.153.

With C24U U60G, the self-cleavage is 0.573.

As for C24U A56G, the self-cleavage was 0.77.

Regarding G25U C64G, the self-cleavage was 0.154.

As to G25U C64U, the self-cleavage is 0.113.

For G25A G34U, the self-cleavage stood at 0.0702.

In the case of G25C G73C, the self-cleavage was 0.0773.

As to G25C G73U, the self-cleavage is 0.185.

In the case of G25A U47C, the self-cleavage turned out to be 0.107.

As to G25C G59U, the self-cleavage stood at 0.116.

With G25C G59A, the self-cleavage came out at 0.0791.

With G25C G59C, the self-cleavage was 0.131.

With G25C G35C, the self-cleavage is 0.115.

For C24U G67A, the self-cleavage amounted to 0.554.

With C24U G67U, the self-cleavage stood at 0.372.

On to G25C C58A, for which the self-cleavage turned out to be 0.104.

As to G25C C58U, the self-cleavage was determined as 0.0739.

Regarding G25A C75U, the self-cleavage came to 0.0923.

As to G25A C75A, the self-cleavage is 0.166.

Consider G25A C75G, for which the self-cleavage stood at 0.102.

Regarding G25C U47G, the self-cleavage was 0.119.

Regarding G25U C32A, the self-cleavage is 0.105.

For the variant G25U C32U, the self-cleavage is 0.161.

Take G25U C32G: the self-cleavage turned out to be 0.0222.

G25C G34U: the self-cleavage stood at 0.

For G25C G34C, the self-cleavage was 0.0426.

In the case of G25C A78C, the self-cleavage worked out at 0.0773.

Regarding G25U C61U, the self-cleavage amounted to 0.163.

Consider G25U C61G, for which the self-cleavage was found to be 0.0978.

For the variant G25U C36A, the self-cleavage stood at 0.106.

As to G25U C36G, the self-cleavage came out at 0.108.

For the variant C24U G50U, the self-cleavage came out at 0.585.

Take G25C U69G: the self-cleavage amounted to 0.

Turning to G25C U69A, the self-cleavage turned out to be 0.166.

For G25U C48G, the self-cleavage was 0.

With G25U C33G, the self-cleavage amounted to 0.119.

As for G25C G67C, the self-cleavage worked out at 0.0415.

For the variant G25C G67U, the self-cleavage was determined as 0.

Turning to G25C G67A, the self-cleavage turned out to be 0.123.

In the case of C24U U27A, the self-cleavage turned out to be 0.399.

For the variant C24U U27G, the self-cleavage was found to be 0.431.

For C24U U27C, the self-cleavage stood at 0.332.

As to C24U U79G, the self-cleavage stood at 0.244.

Consider G25C U79G, for which the self-cleavage worked out at 0.0594.

G25C U79A: the self-cleavage was 0.0615.

For the variant G25C U79C, the self-cleavage is 0.0923.

Turning to C24U G31C, the self-cleavage amounted to 0.0615.

Take C24U G31A: the self-cleavage turned out to be 0.169.

Consider G25A G52U, for which the self-cleavage was determined as 0.169.

Consider G25A C49U, for which the self-cleavage came to 0.318.

As to G25A C49G, the self-cleavage is 0.0755.

G25A C49A: the self-cleavage was 0.101.

For the variant G25C A51G, the self-cleavage stood at 0.237.

In the case of G25A C41G, the self-cleavage amounted to 0.177.

Take G25A C41A: the self-cleavage stood at 0.212.
